One may read the Ki as the equilibrium dissociation constant of an inhibitor or competing ligand from its target. The low end stands for higher affinity, the high end for lower affinity.

For two molecules, Ki results are on record in paper PMC6838674, “Apelin-36-[L28A] and Apelin-36-[L28C(30kDa-PEG)] peptides that improve diet induced obesity are G protein biased ligands at the apelin receptor” (Peptides, 2019).

Test [1] has as its target T1, apelin receptor (Rattus norvegicus), Q9JHG3.
T1 chain: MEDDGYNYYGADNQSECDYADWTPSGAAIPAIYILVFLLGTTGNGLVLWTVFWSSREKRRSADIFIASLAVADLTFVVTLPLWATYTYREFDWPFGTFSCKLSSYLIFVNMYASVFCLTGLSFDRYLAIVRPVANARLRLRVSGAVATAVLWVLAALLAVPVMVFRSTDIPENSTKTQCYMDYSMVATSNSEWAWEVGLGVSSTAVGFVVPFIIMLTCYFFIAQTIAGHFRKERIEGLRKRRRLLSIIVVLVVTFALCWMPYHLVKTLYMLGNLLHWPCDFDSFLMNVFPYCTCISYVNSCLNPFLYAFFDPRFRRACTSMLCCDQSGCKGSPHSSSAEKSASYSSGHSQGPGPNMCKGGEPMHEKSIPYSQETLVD
In words: radioligand competition binding, heart homogenate. The settings on record: modification not given. For orientation: Displacement assays read how much labelled ligand stays bound in the presence of the test substance.

Test [2] concerns the target T2, apelin receptor (Rattus norvegicus), Q9JHG3.
T2 chain: T1 chain with A28C
In words: radioligand competition binding, heart homogenate. The settings on record: modification not given.

Positions count from the first letter of the chain named. In names and notes the source's numbering stands. Ends that are not written are not given here.

Consider LVQPRGSRNGPGPWQGGRRKFRRQRPRASHKGPMPF (not fully specified) [apelin-36-[L28A]], for which the inhibition constant (Ki) in test [1] is 0.309 nM. In the case of LVQPRGSRNGPGPWQGGRRKFRRQRPRCSHKGPMPF [apelin-36-[L28C(30kDa-PEG)]], in test [2], the inhibition constant (Ki) was 8.71 nM.
